Sequences and labels used below:
B1: Fused in Sarcoma (FUS), endogenous wild type [human (endogenous in HEK293 and human fibroblasts)] / DNA Ligase IIIα (Lig3), mitochondrial form mtLig3 [human (endogenous in HEK293 and human fibroblasts)] (parent)
chain 1: MASNDYTQQATQSYGAYPTQPGQGYSQQSSQPYGQQSYSGYSQSTDTSGYGQSSYSSYGQSQNTGYGTQSTPQGYGSTGGYGSSQSSQSSYGQQSSYPGYGQQPAPSSTSGSYGSSSQSSSYGQPQSGSYSQQPSYGGQQQSYGQQQSYNPPQGYGQQNQYNSSSGGGGGGGGGGNYGQDQSSMSSGGGSGGGYGNQDQSGGGGSGGYGQQDRGGRGRGGSGGGGGGGGGGYNRSSGGYEPRGRGGGRGGRGGMGGSDRGGFNKFGGPRDQGSRHDSEQDNSDNNTIFVQGLGENVTIESVADYFKQIGIIKTNKKTGQPMINLYTDRETGKLKGEATVSFDDPPSAKAAIDWFDGKEFSGNPIKVSFATRRADFNRGGGNGRGGRGRGGPMGRGGYGGGGSGGGGRGGFPSGGGGGGGQQRAGDWKCPNPTCENMNFSWRNECNQCKAPKPDGPGGGPGGSHMGGNYGDDRRGGRGGYDRGGYRGRGGDRGGFRGGRGGGDRGGFGPGKMDSRGEHRQDRRERPY
chain 2: LLHGHPLFLRRKPVLSFQGSHLRSRATYLVFLPGLHVGLCSGPCEMAEQRFCVDYAKRGTAGCKKCKEKIVKGVCRIGKVVPNPFSESGGDMKEWYHIKCMFEKLERARATTKKIEDLTELEGWEELEDNEKEQITQHIADLSSKAAGTPKKKAVVQAKLTTTGQVTSPVKGASFVTSTNPRKFSGFSAKPNNSGEAPSSPTPKRSLSSSKCDPRHKDCLLREFRKLCAMVADNPSYNTKTQIIQDFLRKGSAGDGFHGDVYLTVKLLLPGVIKTVYNLNDKQIVKLFSRIFNCNPDDMARDLEQGDVSETIRVFFEQSKSFPPAAKSLLTIQEVDEFLLRLSKLTKEDEQQQALQDIASRCTANDLKCIIRLIKHDLKMNSGAKHVLDALDPNAYEAFKASRNLQDVVERVLHNAQEVEKEPGQRRALSVQASLMTPVQPMLAEACKSVEYAMKKCPNGMFSEIKYDGERVQVHKNGDHFSYFSRSLKPVLPHKVAHFKDYIPQAFPGGHSMILDSEVLLIDNKTGKPLPFGTLGVHKKAAFQDANVCLFVFDCIYFNDVSLMDRPLCERRKFLHDNMVEIPNRIMFSEMKRVTKALDLADMITRVIQEGLEGLVLKDVKGTYEPGKRHWLKVKKDYLNEGAMADTADLVVLGAFYGQGSKGGMMSIFLMGCYDPGSQKWCTVTKCAGGHDDATLARLQNELDMVKISKDPSKIPSWLKVNKIYYPDFIVPDPKKAAVWEITGAEFSKSEAHTADGISIRFPRCTRIRDDKDWKSATNLPQLKELYQLSKEKADFTVVAGDEGSSTTGGSSEENKGPSGSAVSRKAPSKPSASTKKAEGKLSNSNSKDGNMQTAKPSAMKVGEKLATKSSPVKVGEKRKAADETLCQTKVLLDIFTGVRLYLPPSTPDFSRLRRYFVAFDGDLVQEFDMTSATHVLGSRDKNPAAQQVSPEWIWACIRKRRLVAPC

In this experiment the parent is B1. Nature of the experiment: proximity ligation assay (PLA) in control and patient derived fibroblasts. Conditions: with DNA Ligase IIIα (Lig3), GO treatment (100ng/ml for 1 hr) per legend, the box plot does not say whether control or GO-treated cells were counted, parent: 64, read off a plot.
Regarding chain 1 R521H, the response (PLA foci/cell) was determined as 19.

Consider chain 1 P525L, for which the response (PLA foci/cell) stood at 20.
